The text below walks through data of patent US20210052695A1 (CAMBRIDGE ENTERPRISE, published 2021).

Ends that are not written are not given here. * marks the point of attachment. TAMRA = 5-carboxytetramethylrhodamine, CN(C)c1ccc2c(-c3ccc(C(=O)*)cc3C(=O)[O-])c3ccc(N(C)C)cc3[o+]c2c1

In experiment [1] the target is T1, HLA-A*68:02 expressed on the cell surface (HeLaM cells, or HeLaM-HLA-ABC^KO cells reconstituted with … (human)).
T1 construct: whole, on cells; Carries the cells' own, unnamed peptides before exchange; also called HLA-A*A68:02
Put plainly: flow cytometry of fluorescent peptide on IFN-γ treated HeLaM cell lines, 15 min at 37° C. For orientation: A flow cytometer gives signals particle by particle.
Description: (§1) Target cell lines were seeded at 25,000-30,000 cells/well in 12-well plates and stimulated with IFN-γ. Following the stimulation period, the cells were washed 3 times with 1×PBS and incubated with 300 μL pre-warmed opti-MEM (Thermo Fisher Scientific, UK). […] After 15 min, the desired TAMRA-labelled peptide was added to the cells and incubated at 37° C. (15 min for HLA-A*68:02 or 60 min for HLA-A*02:01). […] Following the peptide treatment, the cells were washed three times in 1×PBS and harvested. The level of bound peptide/cell was determined by flow cytometry, using the YelFL1 channel (Cytek).

The target of experiment [2] is T1, HLA-A*68:02 expressed on the cell …. In words: cell-based peptide exchange: no dissociation of fluorescent peptide from HLA-A*68:02 on HeLa^KOTAPBPR^WT cells.
Description: (§2) Cells were incubated with 10 nM fluorescent peptide for 15 min at 37° C., washed, then subsequently incubated with increasing concentrations of unlabeled competitor peptide for 15 min at 37° C.
(§3) First, cells were incubated with 10 nM fluorescently-labelled peptide for 15 min at 37° C. to allow surface MHC class I molecules to bind to labelled peptides. The, after extensive washing to remove any unbound fluorescent peptide, the ability of the cells to exchange the labelled peptide was assessed by incubating the cell with various unlabeled competitor peptides for 15 min at 37° C.
For experiment [3] the target is unchanged. Put plainly: flow cytometry of fluorescent peptide on transduced HeLaM-TAPBPR^KO cells.
Experiment [4] concerns the target T2, UDP-glucose:glycoprotein glucosyltransferase 1 (UGT1) (UniProt Q9NYU2 43-1555).
T2 construct: Detected by Western blot in TAPBPR immunoprecipitates
In words: immunoprecipitation of the intracellular TAPBPR pool, Western blot for UGT1. In general terms: In western blotting, separated proteins are transferred to a membrane and probed.
Description: Nuclei and cell debris were pelleted by centrifugation at 13,000×g for 15 min and supernatants were collected. Immunoprecipitation was performed with Pete4 antibody coupled to protein A sepharose (GE Healthcare) for 2 h at 4° C. with rotation. Following immunoprecipitation, beads were washed thoroughly in 0.1% detergent-TBS to remove unbound protein. […] In order to analyse the samples by western blotting, proteins were transferred onto an Immobilon transfer membrane (Merck Millipore). Membranes were blocked using 5% (w/v) dried milk and 0.1% (v/v) Tween 20 in PBS for 30 min and subsequently incubated with the indicated primary antibody for 1-16 h. After washing, membranes were incubated with species-specific HRP-conjugated secondary antibodies, washed and detected by enhanced chemiluminescence using Western Lightning (Perkin Elmer, UK) and Super RX film (Fujifilm, UK). Films were scanned on a CanoScan8800F using MX Navigator Software (Canon, UK).

For experiment [5], the target named is T1, HLA-A*68:02 expressed on the cell …. In words: flow cytometry of TAPBPR on HeLaM cells without surface GFP.
Experiment [6] shares this target. In words: cell-based peptide exchange on HeLa^KOTAPBPR^WT cells, displacement of fluorescent peptide, flow cytometry.
Description: as §2, §3
Experiment [7] has the same target. Put plainly: flow cytometry, time course with 10 nM fluorescent peptide (FIG. 1e).
Description: as §1
The target is the same in experiment [8]. In words: flow cytometry, dose response of fluorescent peptide on HeLaM cell lines (FIG. 1d).
Description: as §1
The target is the same in experiment [9]. In words: flow cytometry with PeTe-4 on HeLaM, HeLaM-HLA-ABC^KO and HLA-A*68:02 reconstituted cells, 100 nM protein, 15 min at 37° C.
Excerpt: Line graphs show MFI−/+s.e.m from three independent experiments. […] (i) Bar graphs showing the MFI of fluorescent peptide binding to HeLaM HLA-ABC^KO+A2−/+s.e.m from two independent experiments with duplicates. ***P≤0.001, ****P≤0.0001, n/s not significant, using unpaired two-tailed t-test.

T2 sequence (Q9NYU2 43-1555 limits assumed): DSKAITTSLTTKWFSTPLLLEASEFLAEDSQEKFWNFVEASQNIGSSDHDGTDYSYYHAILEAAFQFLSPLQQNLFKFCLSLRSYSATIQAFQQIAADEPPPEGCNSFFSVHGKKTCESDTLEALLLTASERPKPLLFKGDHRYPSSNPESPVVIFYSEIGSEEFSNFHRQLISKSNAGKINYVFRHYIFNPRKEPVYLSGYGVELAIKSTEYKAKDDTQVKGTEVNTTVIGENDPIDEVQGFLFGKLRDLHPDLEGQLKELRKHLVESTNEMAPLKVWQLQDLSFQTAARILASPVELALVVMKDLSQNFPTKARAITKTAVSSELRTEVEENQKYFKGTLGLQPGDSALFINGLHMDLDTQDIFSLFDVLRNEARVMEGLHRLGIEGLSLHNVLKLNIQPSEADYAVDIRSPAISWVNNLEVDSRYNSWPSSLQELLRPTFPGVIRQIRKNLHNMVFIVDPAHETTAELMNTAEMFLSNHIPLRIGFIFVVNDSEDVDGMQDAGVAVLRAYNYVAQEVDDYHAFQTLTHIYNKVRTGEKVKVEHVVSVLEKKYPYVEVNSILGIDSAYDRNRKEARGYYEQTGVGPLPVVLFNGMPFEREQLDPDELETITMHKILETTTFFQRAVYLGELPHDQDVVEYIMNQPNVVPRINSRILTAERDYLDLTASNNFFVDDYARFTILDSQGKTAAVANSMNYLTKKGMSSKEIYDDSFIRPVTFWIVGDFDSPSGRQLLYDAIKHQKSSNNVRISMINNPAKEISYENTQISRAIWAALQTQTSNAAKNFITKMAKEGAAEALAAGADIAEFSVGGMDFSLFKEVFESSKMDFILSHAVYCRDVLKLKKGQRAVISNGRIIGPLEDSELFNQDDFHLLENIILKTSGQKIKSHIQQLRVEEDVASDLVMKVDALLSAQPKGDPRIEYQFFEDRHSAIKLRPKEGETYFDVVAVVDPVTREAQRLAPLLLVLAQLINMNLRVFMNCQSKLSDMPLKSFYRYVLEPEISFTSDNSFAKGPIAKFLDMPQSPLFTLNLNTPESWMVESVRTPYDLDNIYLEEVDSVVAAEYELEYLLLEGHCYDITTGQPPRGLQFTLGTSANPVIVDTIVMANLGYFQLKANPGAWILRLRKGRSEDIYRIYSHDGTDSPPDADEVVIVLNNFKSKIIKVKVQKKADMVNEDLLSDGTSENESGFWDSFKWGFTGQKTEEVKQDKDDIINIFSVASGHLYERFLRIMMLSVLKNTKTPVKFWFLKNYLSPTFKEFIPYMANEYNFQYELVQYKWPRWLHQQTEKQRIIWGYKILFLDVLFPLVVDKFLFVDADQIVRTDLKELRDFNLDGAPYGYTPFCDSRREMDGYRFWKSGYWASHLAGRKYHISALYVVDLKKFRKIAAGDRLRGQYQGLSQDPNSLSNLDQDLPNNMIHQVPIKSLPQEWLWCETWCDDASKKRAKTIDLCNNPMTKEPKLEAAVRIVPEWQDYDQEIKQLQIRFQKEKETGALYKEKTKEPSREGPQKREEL

As for EGVSK(TAMRA)QSNG (also called ETVΔ2/9) [EGVSK*QSNG (fluorescent non-binding variant with the anchor residues mutated)], the binding result in [1] was “no binding (tested: 10 nM)”. With EGVSEQSNG (also called ETVΔ2/9), the binding result in experiment [2] was “no binding”. As to YVVPFVAK(TAMRA)V [YVVPFVAK*V (fluorescent variant of YVVPFVAKV)], the “fold less exogenous peptide binding on tapasin^PM cells than on TAPBPR^PM cells” value in experiment [3] was around 10 times.

B1: full-length TAPBPR^WT over-expressed in HeLaM-TAPBPR^KO cells (other)
chain: KPHPAEGQWRAVDVVLDCFLVKDGAHRGALASSEDRARASLVLKQVPVLDDGSLEDFTDFQGGTLAQDDPPIIFEASVDLVQIPQAEALLHADCSGKEVTCEISRYFLQMTETTVKTAAWFMANVQVSGGGPSISLVMKTPRVAKNEVLWHPTLNLPLSPQGTVRTAVEFQVMTQTQSLSFLLGSSASLDCGFSMAPGLDLISVEWRLQHKGRGQLVYSWTAGQGQAVRKGATLEPAQLGMARDASLTLPGLTIQDEGTYICQITTSLYRAQQIIQLNIQASPKVRLSLANEALLPTLICDIAGYYPLDVVVTWTREELGGSPAQVSGASFSSLRQSVAGTYSISSSLTAEPGSAGATYTCQVTHISLEEPLGASTQVVPPERRTALGVIFASSLFLLALMFLGLQRRQAPTGLGLLQAERWETTSCADTQSSHLHEDRTARVSQPS
notes: V41_G151_V169 polymorphisms as used in the studies; also called surface TAPBPR; HeLa^KOTAPBPR^WT
On to B1, for which the binding result in [4] is on record as “binds”.

B2: TAPBPR-GFPNB fusion protein (soluble TAPBPR fused to a nanobody specific for GFP, long linker) (other)
chain: KPHPAEGQWRAVDVVLDCFLVKDGAHRGALASSEDRARASLVLKQVPVLDDGSLEDFTDFQGGTLAQDDPPIIFEASVDLVQIPQAEALLHADCSGKEVTCEISRYFLQMTETTVKTAAWFMANVQVSGGGPSISLVMKTPRVAKNEVLWHPTLNLPLSPQGTVRTAVEFQVMTQTQSLSFLLGSSASLDCGFSMAPGLDLISVEWRLQHKGRGQLVYSWTAGQGQAVRKGATLEPAQLGMARDASLTLPGLTIQDEGTYICQITTSLYRAQQIIQLNIQASPKVRLSLANEALLPTLICDIAGYYPLDVVVTWTREELGGSPAQVSGASFSSLRQSVAGTYSISSSLTAEPGSAGATYTCQVTHISLEEPLGASTQVVPPERRHVGGGGSGGGGSGGGGSTSQVQLVESGGALVQPGGSLRLSCAASGFPVNRYSMRWYRQAPGKEREWVAGMSSAGDRSSYEDSVKGRFTISRDDARNTVYLQMNSLKPEDTAVYYCNVNVGFEYWGQGTQVTVSSK
notes: 21 aa leader left out; also called sTAPBPR-linker-GFPNB; sTAPBPR-GFP sdAb
For B2, the binding result in [5] is recorded as “no binding (tested: 100 nM)”. YVVPFVAKV [YVVPFVAKV (unlabeled peptide)]: the binding result in [6] was “binds”. ETVSK(TAMRA)QSNV [ETVSK*QSNV (fluorescent variant of the neoantigen …)]: the “fold increase in fluorescent peptide bound to HeLaKO-TAPBPR^WT against the HeLaM and HeLaM^KO controls after 60 min” value in experiment [7] turned out to be 21 fold. Moreover, in experiment [3], the “fold less exogenous peptide binding on tapasin^PM cells than on TAPBPR^PM cells” value is around 10 times. Further, in experiment [8], the “fold less efficient peptide binding to cells lacking surface TAPBPR than TAPBPR-promoted binding” value was around 120 times. For the molecule ETVSEQSNV [ETVSEQSNV (unlabeled HLA-A*68:02-binding peptide)], in [6], the binding result is given as “binds”.

B3: soluble TAPBPR^WT (secreted luminal domain of human TAPBPR, C-terminally His-tagged) (other)
chain: KPHPAEGQWRAVDVVLDCFLVKDGAHRGALASSEDRARASLVLKQVPVLDDGSLEDFTDFQGGTLAQDDPPIIFEASVDLVQIPQAEALLHADCSGKEVTCEISRYFLQMTETTVKTAAWFMANVQVSGGGPSISLVMKTPRVAKNEVLWHPTLNLPLSPQGTVRTAVEFQVMTQTQSLSFLLGSSASLDCGFSMAPGLDLISVEWRLQHKGRGQLVYSWTAGQGQAVRKGATLEPAQLGMARDASLTLPGLTIQDEGTYICQITTSLYRAQQIIQLNIQASPKVRLSLANEALLPTLICDIAGYYPLDVVVTWTREELGGSPAQVSGASFSSLRQSVAGTYSISSSLTAEPGSAGATYTCQVTHISLEEPLGASTQVVPPERR
notes: Made in 293T cells with the PiggyBac system and purified on Ni Sepharose; also called sol WT; exogenous TAPBPR^WT; not shown: C-terminal His tag
In the case of B3, the binding result in [9] is on record as “binds”.
